Data as given in patent US20190375839A1 (JIANGSU HENGRUI MEDICINE, published 2019).

B1: h1799-010 (antibody, human IgG4 S228P, kappa)
heavy: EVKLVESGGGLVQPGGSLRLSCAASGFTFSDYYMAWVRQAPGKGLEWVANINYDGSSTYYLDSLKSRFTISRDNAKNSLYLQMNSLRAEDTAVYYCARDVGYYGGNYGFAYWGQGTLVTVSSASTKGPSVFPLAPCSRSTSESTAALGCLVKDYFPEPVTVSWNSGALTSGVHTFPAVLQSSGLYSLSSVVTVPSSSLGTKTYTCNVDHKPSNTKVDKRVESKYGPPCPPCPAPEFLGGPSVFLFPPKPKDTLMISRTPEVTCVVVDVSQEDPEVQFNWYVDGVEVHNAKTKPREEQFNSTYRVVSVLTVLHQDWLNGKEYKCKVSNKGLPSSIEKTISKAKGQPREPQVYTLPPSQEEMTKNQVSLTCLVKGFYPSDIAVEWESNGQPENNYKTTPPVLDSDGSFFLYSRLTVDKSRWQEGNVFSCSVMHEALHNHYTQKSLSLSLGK
light: DIQMTQSPSSLSASVGDRVTITCRASDNIYSYLAWYQQKPGKAPKLLIYNAKTLAEGVPSRFSGSGSGTDFTLTISSLQPEDFATYYCQQHYGSPLTFGQGTKLEIKRTVAAPSVFIFPPSDEQLKSGTASVVCLLNNFYPREAKVQWKVDNALQSGNSQESVTEQDSKDSTYSLSSTLTLSKADYEKHKVYACEVTHQGLSSPVTKSFNRGEC
notes: Humanized IgG4 (S228P)/kappa
B2: h1799-006 (antibody, human IgG4 S228P, kappa)
heavy: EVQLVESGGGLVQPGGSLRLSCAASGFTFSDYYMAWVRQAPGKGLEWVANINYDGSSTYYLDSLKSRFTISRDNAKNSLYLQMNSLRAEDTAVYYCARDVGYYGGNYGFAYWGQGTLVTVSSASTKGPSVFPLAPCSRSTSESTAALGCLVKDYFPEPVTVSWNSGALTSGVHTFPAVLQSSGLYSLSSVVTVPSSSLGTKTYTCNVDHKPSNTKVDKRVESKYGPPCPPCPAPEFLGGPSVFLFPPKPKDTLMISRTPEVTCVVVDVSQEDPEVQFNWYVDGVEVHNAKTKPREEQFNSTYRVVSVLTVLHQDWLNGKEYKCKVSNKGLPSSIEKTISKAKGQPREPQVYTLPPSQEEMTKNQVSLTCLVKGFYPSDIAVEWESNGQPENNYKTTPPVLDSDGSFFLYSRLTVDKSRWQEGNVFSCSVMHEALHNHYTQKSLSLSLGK
light: DIQMTQSPSSLSASVGDRVTITCRASDNIYSYLAWYQQKPGKAPKLLVYNAKTLAEGVPSRFSGSGSGTDFTLTISSLQPEDFATYYCQQHYGSPLTFGQGTKLEIKRTVAAPSVFIFPPSDEQLKSGTASVVCLLNNFYPREAKVQWKVDNALQSGNSQESVTEQDSKDSTYSLSSTLTLSKADYEKHKVYACEVTHQGLSSPVTKSFNRGEC
notes: Humanized IgG4 (S228P)/kappa
B3: ABTim-3 (antibody, V domains shown)
VH: QVQLQQPGAELVKPGASVKMSCKASGYTFTSYNMHWIKQTPGQGLEWIGDIYPGNGDTSYNQKFKGKATLTADKSSSTVYMQLSSLTSEDSAVYYCARVGGAFPMDYWGQGTSVTVSS
VL: DIVLTQSPASLAVSLGQRATISCRASESVEYYGTSLMQWYQQKPGQPPKLLIYAASNVESGVPARFSGSGSGTDFSLNIHPVEEDDIAIYFCQQSRKDPSTFGGGTKLEIK
B4: h1701-009 (antibody, human IgG4 S228P, kappa, V domains shown)
VH: QVQLVQSGAEVKKPGASVKVSCKASGYTFTDYYMNWVRQAPGQGLEWMGDIIPNNGGSKYNQKFKDRVTMTTDTSTSTAYMELRSLRSDDTAVYYCATWGYGSSYRWFDYWGQGTLVTVSS
VL: DIQMTQSPSSLSASVGDRVTITCLASQPIGIWLAWYQQKPGKAPKLLIYAATSLADGVPSRFSGSGSGTDFTFTISSLQPEDIATYYCQQLYSSPWTFGGGTKVEIKR
notes: Humanized IgG4 (S228P)/kappa

Key:
[1] = molecular target: T1, human TIM-3 full length, overexpressed on CHO-S cells (human, UniProt Q8TDQ0 22-301); experiment: cell-based ELISA on fixed CHO-S cells overexpressing human TIM-3;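 note: antibody binding at serial dilutions to PFA-fixed cells for 1 h at 37 °C, read as TMB colour signal after acid stop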
T1 construct: cells fixed with 4% PFA on plates; also called HAVCR2; Tim-3-overexpressing CHO-S cells
Experimental: (§1) The binding activity of anti-TIM-3 antibody to CHO-S cells overexpressing human TIM-3 is detected via a binding assay. […] TIM-3-overexpressing cells were immobilized on a 96-well plate. After the addition of the antibody, signal strength was used to determine the binding activity of the antibody to Tim-3-overexpressing CHO-S cells.
(§2) The cells were inoculated on a 96-well plate with 4E5/ml density, 100 μg/well, and cultured overnight. Supernatant was discarded and the plate was washed three times with PBS. 100 μl/well of 4% PFA was added into each well, and the plate was fixed at room temperature for 30 minutes. The plate was washed three times with PBS. The liquid was discarded, and 200 μl of blocking solution (5% skim milk (Guangming skim milk powder) diluted with PBS) was added to each well. The plate was incubated at 37° C. for 2.5 h. Then the blocking solution was discarded, and the plate was washed 5 times with PBST buffer (pH 7.4 PBS containing 0.05% Tween-20). 50 μl/well of various concentrations of antibodies to be tested (antibody via hybridoma purification or humanized antibody), diluted with sample buffer, were added into each well, and incubated at 37° C. for 1 h. […] The plate was washed 6 times with PBST, and 100 μl/well TMB chromogenic substrates (KPL, Cat, No., 52-00-03) was added to each well. The plate was incubated at room temperature for 5-15 min. Reaction was stopped by the addition of 50 μl of 1 M H₂SO₄ to each well.

[2] = molecular target: T2, Extracellular domain of TIM-3 with Flag and His tag (human); experiment: Biacore SPR; antibody captured by anti-human capture antibody on CM5, TIM-3-Flag-His in mobile phase
T2 construct: also called TIM-3-Flag-His
Text: The reaction signal was detected in real-time using Biacore instrument to obtain the association and dissociation curves. […] In the experiment, after each cycle of dissociation was finished, the biosensor chip was washed with the regenerative solution in the human capture antibody Kit.

[3] = molecular target: T1, human TIM-3 full length, overexpressed …; experiment: cell-based ELISA on fixed CHO-S cells overexpressing human TIM-3, HRP-labeled secondary antibody, OD450
[4] = molecular target: T1, human TIM-3 full length, overexpressed …; experiment: cell-based ELISA on CHO-S cells overexpressing human TIM-3
Experimental: as §1, §2

[5] = molecular target: T2, Extracellular domain of TIM-3 with Flag …; experiment: Biacore SPR; antibody as stationary phase, 'TIM-3-His' as mobile phase

Row | Binder | EC50 [1] [nM] | Kd [2] [nM] | EC50 (read off the curve) [3] [nM] | EC50 [4] [nM] | Kd [5] [nM]
1 | B1 | 0.077 | 2.48 |  |  | 
2 | B2 | 0.095 | 1.89 |  |  | 
3 | B3 |  |  | ~0.2 |  | 
4 | B4 | 0.187 | 1.34 |  | 0.503 | 0.599
